Test results from PMC10377357 (2023).

B1: Rps2(76–145)-TurboID [S. cerevisiae] / Pse1 [S. cerevisiae (endogenous in the yeast strains)] (parent complex)
chain 1: LQDEVMNIKPVQKQTRAGQRTRFKAVVVVGDSNGHVGLGIKTAKEVAGAIRAGIIIAKLSVIPIRRGYWG
chain 2: MSALPEEVNRTLLQIVQAFASPDNQIRSVAEKALSEEWITENNIEYLLTFLAEQAAFSQDTTVAALSAVLFRKLALKAPPSSKLMIMSKNITHIRKEVLAQIRSSLLKGFLSERADSIRHKLSDAIAECVQDDLPAWPELLQALIESLKSGNPNFRESSFRILTTVPYLITAVDINSILPIFQSGFTDASDNVKIAAVTAFVGYFKQLPKSEWSKLGILLPSLLNSLPRFLDDGKDDALASVFESLIELVELAPKLFKDMFDQIIQFTDMVIKNKDLEPPARTTALELLTVFSENAPQMCKSNQNYGQTLVMVTLIMMTEVSIDDDDAAEWIESDDTDDEEEVTYDHARQALDRVALKLGGEYLAAPLFQYLQQMITSTEWRERFAAMMALSSAAEGCADVLIGEIPKILDMVIPLINDPHPRVQYGCCNVLGQISTDFSPFIQRTAHDRILPALISKLTSECTSRVQTHAAAALVNFSEFASKDILEPYLDSLLTNLLVLLQSNKLYVQEQALTTIAFIAEAAKNKFIKYYDTLMPLLLNVLKVNNKDNSVLKGKCMECATLIGFAVGKEKFHEHSQELISILVALQNSDIDEDDALRSYLEQSWSRICRILGDDFVPLLPIVIPPLLITAKATQDVGLIEEEEAANFQQYPDWDVVQVQGKHIAIHTSVLDDKVSAMELLQSYATLLRGQFAVYVKEVMEEIALPSLDFYLHDGVRAAGATLIPILLSCLLAATGTQNEELVLLWHKASSKLIGGLMSEPMPEITQVYHNSLVNGIKVMGDNCLSEDQLAAFTKGVSANLTDTYERMQDRHGDGDEYNENIDEEEDFTDEDLLDEINKSIAAVLKTTNGHYLKNLENIWPMINTFLLDNEPILVIFALVVIGDLIQYGGEQTASMKNAFIPKVTECLISPDARIRQAASYIIGVCAQYAPSTYADVCIPTLDTLVQIVDFPGSKLEENRSSTENASAAIAKILYAYNSNIPNVDTYTANWFKTLPTITDKEAASFNYQFLSQLIENNSPIVCAQSNISAVVDSVIQALNERSLTEREGQTVISSVKKLLGFLPSSDAMAIFNRYPADIMEKVHKWFA
B2: Rps2(1–145)-TurboID [S. cerevisiae] / Pse1 [S. cerevisiae (endogenous in the yeast strains)] (parent complex)
chain 1: MSAPEAQQQKRGGFGGRNRGRPNRRGPRNTEEKGWVPVTKLGRLVKAGKITTIEEIFLHSLPVKEFQIIDTLLPGLQDEVMNIKPVQKQTRAGQRTRFKAVVVVGDSNGHVGLGIKTAKEVAGAIRAGIIIAKLSVIPIRRGYWG
chain 2: B1 chain 2
B3: Rps2(1–145)-TurboID [S. cerevisiae] / Tsr4 [S. cerevisiae (endogenous in YDK11-5A)] (parent complex)
chain 1: B2 chain 1
chain 2: MSKIEELPPSDTDDHSYSSKPGDVFLAFVDAPVKETDDILVEDSFIGGEPKWLHPDSEPPAELLKCGACKSADNMKLLLQAFSPLDDEQMSAIQQRLGINNMSYINPQDDRVLYVFLCTECQRKGNSVRCIRGVKKNKNVDSLSEKMASTSLEKDFQINPFDLSNNSDSKCNAFSSNPFGGANANPFGADSINSNISQSKDEGKKKESATVSAKTARKLHDLQKDKEYDGNKCFKSCLLYVEEETFKNKKPAHLQLPKNLKIDKEALDLTGDEDLEKDPIKLDPRTEKLSKFLDDDTFQKFQEVVGYNPLQVLRYDLGGKPLLYAETKVDILSTVPRPGYNPSSQRIFEMQLMPKMIFDLEEVVSVDNGMEWGTILVFTDVENYMPEFDEHGVGYVEECVKVQWESRT

Variants of: B1
Assay: TurboID-based proximity labeling; baits expressed from plasmid under the copper-inducible CUP1 promoter; parent: 3.1; read off a plot

Variant	enrichment
chain 1 LQDEVMNIKPVQKQTRAGQATAFAAVVVVGDSNGHVGLGIKTAKEVAGAIRAGIIIAKLSVIPIRRGYWG [chain 1 R20A, chain 1 R22A, chain 1 K24A]	~-0.4 log2 fold change vs controls

Variants of: B1
Assay: TurboID-based proximity labeling; baits expressed from plasmid under the copper-inducible CUP1 promoter; parent: 100; read off a plot

Variant	response [normalized iBAQ]
chain 1 LQDEVMNIKPVQKQTRAGQATAFAAVVVVGDSNGHVGLGIKTAKEVAGAIRAGIIIAKLSVIPIRRGYWG [chain 1 R20A, chain 1 R22A, chain 1 K24A]	~9

Variants of: B2
Assay: TurboID-based proximity labeling; parent: 2; read off a plot

Variant	enrichment
chain 1 MSAPEAQQQKRGGFGGRNRGRPNRRGPRNTEEKGWVPVTKLGRLVKAGKITTIEEIFLHSLPVKEFQIIDTLLPGLQDEVMNIKPVQKQTRAGQATAFAAVVVVGDSNGHVGLGIKTAKEVAGAIRAGIIIAKLSVIPIRRGYWG [chain 1 R95A, chain 1 R97A, chain 1 K99A]	~0.9 log2 fold change vs controls

Variants of: B2
Assay: TurboID-based proximity labeling; parent: 30; read off a plot

Variant	response [normalized iBAQ]
chain 1 MSAPEAQQQKRGGFGGRNRGRPNRRGPRNTEEKGWVPVTKLGRLVKAGKITTIEEIFLHSLPVKEFQIIDTLLPGLQDEVMNIKPVQKQTRAGQATAFAAVVVVGDSNGHVGLGIKTAKEVAGAIRAGIIIAKLSVIPIRRGYWG [chain 1 R95A, chain 1 R97A, chain 1 K99A]	~26

Variants of: B3
Assay: TurboID-based proximity labeling; parent: 5.9; read off a plot

Variant	enrichment
chain 1 MSAPEAQQQKRGGFGGRNRGRPNRRGPRNTEEKGWVPVTKLGRLVKAGKITTIEEIFLHSLPVKEFQIIDTLLPGLQDEVMNIKPVQKQTRAGQATAFAAVVVVGDSNGHVGLGIKTAKEVAGAIRAGIIIAKLSVIPIRRGYWG [chain 1 R95A, chain 1 R97A, chain 1 K99A]	~5.9 log2 fold change vs controls

Variants of: B3
Assay: TurboID-based proximity labeling; parent: 210; read off a plot

Variant	response [normalized iBAQ]
chain 1 MSAPEAQQQKRGGFGGRNRGRPNRRGPRNTEEKGWVPVTKLGRLVKAGKITTIEEIFLHSLPVKEFQIIDTLLPGLQDEVMNIKPVQKQTRAGQATAFAAVVVVGDSNGHVGLGIKTAKEVAGAIRAGIIIAKLSVIPIRRGYWG [chain 1 R95A, chain 1 R97A, chain 1 K99A]	~260
